Target: T1, recombinant human Hsp90β (human, UniProt P08238 1-724)
T1 construct: Heat shock protein 90 beta (Hsp90β, constitutively expressed form, gene HSP90AB1), human, recombinant; Commercial protein; also called heat shock protein 90; purified Hsp90; source: bought: StressMarq (recombinant)
Assay: co-sedimentation; Hsp90β mixed with C9 or BSA (1 µg each) in TBS, 1 h at 37 °C; sucrose density gradient (1–20% by text and methods, 10–30% by legend), 18 h ultracentrifugation, 4 °C; fractions dot blotted with anti-Hsp90β or anti-C9
Details: both partners purified

T1 sequence (P08238 whole entry): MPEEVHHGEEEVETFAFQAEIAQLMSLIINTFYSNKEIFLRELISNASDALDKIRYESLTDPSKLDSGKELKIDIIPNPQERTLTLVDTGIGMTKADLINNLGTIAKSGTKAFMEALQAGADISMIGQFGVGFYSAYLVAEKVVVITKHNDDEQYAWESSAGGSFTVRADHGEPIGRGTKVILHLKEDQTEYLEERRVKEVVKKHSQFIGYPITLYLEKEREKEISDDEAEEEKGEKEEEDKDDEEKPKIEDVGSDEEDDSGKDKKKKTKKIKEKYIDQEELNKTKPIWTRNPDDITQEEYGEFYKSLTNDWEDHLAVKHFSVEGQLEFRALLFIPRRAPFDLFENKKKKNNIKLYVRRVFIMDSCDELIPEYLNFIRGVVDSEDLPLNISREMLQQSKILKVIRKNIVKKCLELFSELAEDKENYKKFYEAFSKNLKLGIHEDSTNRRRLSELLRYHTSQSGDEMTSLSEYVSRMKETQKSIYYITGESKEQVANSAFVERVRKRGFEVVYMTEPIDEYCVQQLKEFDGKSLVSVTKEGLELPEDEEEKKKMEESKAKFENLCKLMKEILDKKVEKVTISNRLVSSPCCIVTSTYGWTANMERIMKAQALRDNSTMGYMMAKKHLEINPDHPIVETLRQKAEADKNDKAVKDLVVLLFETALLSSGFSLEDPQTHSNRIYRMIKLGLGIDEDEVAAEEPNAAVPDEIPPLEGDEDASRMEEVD

binding result: binds
B1: purified human C9 (natural protein)
chain: not shown
notes: Complement component C9, human, purified; also called complement C9; complement protein C9; source: bought: Complement Technology Inc. (purified human C9)

From paper PMC5833442, “Cooperation between Hsp90 and mortalin/GRP75 in resistance to cell death induced by complement C5b-9” (Cell Death & Disease, 2018)
